# Reference: IntAct's records for PubMed 22579247
# B1: Abscisic acid receptor PYL3 (Arabidopsis thaliana (Mouse-ear cress)), Q9SSM7 (parent)
# chain: MNLAPIHDPSSSSTTTTSSSTPYGLTKDEFSTLDSIIRTHHTFPRSPNTCTSLIAHRVDAPAHAIWRFVRDFANPNKYKHFIKSCTIRVNGNGIKEIKVGTIREVSVVSGLPASTSVEILEVLDEEKRILSFRVLGGEHRLNNYRSVTSVNEFVVLEKDKKKRVYSVVLESYIVDIPQGNTEEDTRMFVDTVVKSNLQNLAVISTASPT
# Variants of: B1
# Details: with HAB1, Q9CAJ0
row,effect of a mutation on the interaction,Variant
1,increasing interaction strength,F81A;V202A;I203A
2,increasing interaction strength,S195L
